Here are results for one substance from patent US20140087395A1.

This assay deals with pig asialo-thyroglobulin (pig) (UniProt F1RRV3). In words: cell-based or functional assay.
UniProt F1RRV3, sequence (F1RRV3 20-2692 limits assumed): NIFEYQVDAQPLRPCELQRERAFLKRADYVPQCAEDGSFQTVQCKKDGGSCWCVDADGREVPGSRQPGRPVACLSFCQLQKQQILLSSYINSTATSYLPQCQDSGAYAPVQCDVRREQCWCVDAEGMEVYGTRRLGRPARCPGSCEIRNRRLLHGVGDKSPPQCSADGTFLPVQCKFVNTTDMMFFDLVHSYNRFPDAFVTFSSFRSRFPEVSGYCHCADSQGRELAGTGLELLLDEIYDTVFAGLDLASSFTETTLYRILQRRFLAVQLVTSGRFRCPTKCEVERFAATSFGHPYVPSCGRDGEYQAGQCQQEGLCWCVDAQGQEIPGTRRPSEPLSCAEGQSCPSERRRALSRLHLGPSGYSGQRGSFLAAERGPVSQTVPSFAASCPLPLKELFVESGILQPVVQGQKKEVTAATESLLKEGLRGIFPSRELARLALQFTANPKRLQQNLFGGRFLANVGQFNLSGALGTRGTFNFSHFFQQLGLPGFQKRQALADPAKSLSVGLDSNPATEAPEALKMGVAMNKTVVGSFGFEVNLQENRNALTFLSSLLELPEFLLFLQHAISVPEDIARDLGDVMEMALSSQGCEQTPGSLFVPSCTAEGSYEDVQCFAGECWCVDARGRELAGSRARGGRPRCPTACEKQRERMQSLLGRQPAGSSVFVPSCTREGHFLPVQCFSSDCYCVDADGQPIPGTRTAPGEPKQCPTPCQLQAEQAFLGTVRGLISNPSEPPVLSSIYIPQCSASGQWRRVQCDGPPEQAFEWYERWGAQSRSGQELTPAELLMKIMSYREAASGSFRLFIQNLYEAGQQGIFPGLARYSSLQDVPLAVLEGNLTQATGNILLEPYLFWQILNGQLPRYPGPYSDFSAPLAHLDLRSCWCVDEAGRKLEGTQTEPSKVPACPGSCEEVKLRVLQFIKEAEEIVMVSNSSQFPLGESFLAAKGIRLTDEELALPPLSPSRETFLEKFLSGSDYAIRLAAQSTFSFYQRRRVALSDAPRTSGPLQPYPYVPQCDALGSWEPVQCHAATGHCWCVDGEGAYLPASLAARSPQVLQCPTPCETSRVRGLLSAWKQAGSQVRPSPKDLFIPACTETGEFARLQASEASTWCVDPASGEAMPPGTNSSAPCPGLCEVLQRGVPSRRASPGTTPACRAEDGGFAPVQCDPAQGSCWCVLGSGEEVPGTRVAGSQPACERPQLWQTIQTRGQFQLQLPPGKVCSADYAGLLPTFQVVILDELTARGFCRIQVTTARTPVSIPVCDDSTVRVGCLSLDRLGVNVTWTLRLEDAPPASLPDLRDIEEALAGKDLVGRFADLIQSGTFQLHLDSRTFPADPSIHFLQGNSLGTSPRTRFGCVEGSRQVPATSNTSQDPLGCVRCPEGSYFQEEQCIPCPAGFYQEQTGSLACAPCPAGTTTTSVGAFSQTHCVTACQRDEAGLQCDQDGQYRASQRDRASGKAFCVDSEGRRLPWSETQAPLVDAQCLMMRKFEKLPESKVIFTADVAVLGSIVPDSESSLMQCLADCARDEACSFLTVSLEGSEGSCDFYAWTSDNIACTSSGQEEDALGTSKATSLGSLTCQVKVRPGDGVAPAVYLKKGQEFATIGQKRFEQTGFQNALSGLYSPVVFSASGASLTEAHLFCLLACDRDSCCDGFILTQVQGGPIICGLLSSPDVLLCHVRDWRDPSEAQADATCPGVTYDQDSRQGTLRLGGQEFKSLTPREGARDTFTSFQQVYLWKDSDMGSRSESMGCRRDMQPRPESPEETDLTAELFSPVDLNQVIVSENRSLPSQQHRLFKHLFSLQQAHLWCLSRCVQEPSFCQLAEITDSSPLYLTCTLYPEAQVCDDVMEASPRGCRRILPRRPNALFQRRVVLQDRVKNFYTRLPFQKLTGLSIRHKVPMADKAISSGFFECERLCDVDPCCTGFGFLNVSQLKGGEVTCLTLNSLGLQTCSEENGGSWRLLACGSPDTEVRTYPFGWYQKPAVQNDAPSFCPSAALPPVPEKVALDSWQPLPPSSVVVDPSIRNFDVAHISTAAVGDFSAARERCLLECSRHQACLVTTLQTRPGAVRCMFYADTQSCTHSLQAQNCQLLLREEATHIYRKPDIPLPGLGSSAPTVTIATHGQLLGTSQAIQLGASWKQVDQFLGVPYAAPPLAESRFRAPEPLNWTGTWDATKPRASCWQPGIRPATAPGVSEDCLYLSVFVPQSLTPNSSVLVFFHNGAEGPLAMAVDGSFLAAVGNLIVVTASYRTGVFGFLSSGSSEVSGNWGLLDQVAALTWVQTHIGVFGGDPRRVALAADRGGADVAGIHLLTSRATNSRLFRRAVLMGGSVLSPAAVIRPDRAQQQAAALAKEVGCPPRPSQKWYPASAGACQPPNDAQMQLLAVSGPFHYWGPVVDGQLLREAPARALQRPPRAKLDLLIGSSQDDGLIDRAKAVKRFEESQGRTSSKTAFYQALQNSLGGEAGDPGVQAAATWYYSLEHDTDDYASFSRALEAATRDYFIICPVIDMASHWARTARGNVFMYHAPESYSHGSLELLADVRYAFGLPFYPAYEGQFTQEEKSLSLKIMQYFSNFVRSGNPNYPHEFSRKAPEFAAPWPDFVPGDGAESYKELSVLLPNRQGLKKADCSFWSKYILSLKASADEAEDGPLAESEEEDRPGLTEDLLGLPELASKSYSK

“CBA (Codium barbatum agglutinin), purified from Codium barbatum” returned an inhibition of hemagglutination activity (trypsin-treated rabbit red blood cells) of 31 µg/mL.
